Measurements taken from the RNAGym collection of RNA variant scans (doi:10.7554/elife.80360).

B1: Twister Ribozyme (parent)
chain: AACACUGCCAAUGCCGGUCCCAAGCCCGGAUAAAAGUGGAGGGGGCGG

Variants of: B1
Test: self-cleavage, relative activity (ratio to wild type); higher = more cleavage; co-transcriptional

Compared with AACACUGCUUAUGCCGGUCCCAAGCCCGGAUAAAAGUGGAGGGGGCGG [C9U A10U], AACACUGCUCAUGCCGGUCCCAAGCCCGGAUAAAAGUGGAGGGGGCGG [C9U A10C] is higher in self-cleavage: 0.399 for the first, 0.948 for the second.

First: AACACUGCAAAUGCCGGUCCCAAGCCCGGAUAAAAGUGGAGGGGGGGG [C9A C46G]
Second: AACACUGCAAAUGCCGGUCCCAAGCACGGAUAAAAGUGGAGGGGGCGG [C9A C26A]
The self-cleavage of the first is higher: 0.59 for the first, 0.11 for the second.

Going from AACACUGCAAAUGCCGGUCCCAAGCGCGGAUAAAAGUGGAGGGGGCGG [C9A C26G] to AACACUGCGAAUGCCGAUCCCAAGCCCGGAUAAAAGUGGAGGGGGCGG [C9G G17A], the self-cleavage rises from 0.0708 to 0.103.

First: AACACUGCGAAUGCCGGUCCCAAGCCCGGAUAAAAGCGGAGGGGGCGG [C9G U37C]
Second: AACACUGCGAAUGCCGGUCCCAAGCCCGGAUAAAAGAGGAGGGGGCGG [C9G U37A]
The self-cleavage of the first is lower: 0.156 for the first, 0.208 for the second.

Compared with AACACUGCAAAUGCCGGUCCCAAGCCCGGAGAAAAGUGGAGGGGGCGG [C9A U31G], AACACUGCAAAUGCCGGUCCCAAGCCCGGACAAAAGUGGAGGGGGCGG [C9A U31C] is lower in self-cleavage: 0.777 for the first, 0.765 for the second.

Going from AACACUGCAAAUGCCGAUCCCAAGCCCGGAUAAAAGUGGAGGGGGCGG [C9A G17A] to AACACUGCGUAUGCCGGUCCCAAGCCCGGAUAAAAGUGGAGGGGGCGG [C9G A10U], the self-cleavage rises from 0.109 to 0.859.

Compared with AACACUGCGCAUGCCGGUCCCAAGCCCGGAUAAAAGUGGAGGGGGCGG [C9G A10C], AACACUGCGGAUGCCGGUCCCAAGCCCGGAUAAAAGUGGAGGGGGCGG [C9G A10G] is lower in self-cleavage: 0.857 for the first, 0.656 for the second.

First: AACACUGCAAAUGCCGGUCCCAAGCCCGGAUAAAAGUGGAUGGGGCGG [C9A G41U]
Second: AACACUGCAAAUGCCGGUCCCAAGCCCGGAUAAAAGUUGAGGGGGCGG [C9A G38U]
The self-cleavage of the first is lower: 0.179 for the first, 0.32 for the second.

Going from AACACUGCGAAAGCCGGUCCCAAGCCCGGAUAAAAGUGGAGGGGGCGG [C9G U12A] to AACACUGCUAAUGCGGGUCCCAAGCCCGGAUAAAAGUGGAGGGGGCGG [C9U C15G], the self-cleavage falls from 0.968 to 0.0427.

Going from AACACUGCGAAUGCCGGUCCCAAGCCCGGAUAUAAGUGGAGGGGGCGG [C9G A33U] to AACACUGCGAAUGCCGGUCCCAAGCCCGGAUACAAGUGGAGGGGGCGG [C9G A33C], the self-cleavage falls from 0.689 to 0.548.

Going from AACACUGCGAAUGCCGGUCCCAAGCCCGGAUAGAAGUGGAGGGGGCGG [C9G A33G] to AACACUGCAAAUGCCGGUCCCAAGCCCGGAUAAAAAUGGAGGGGGCGG [C9A G36A], the self-cleavage falls from 0.548 to 0.178.

Going from AACACUGCAAAUGCCGGUCCCAAGCCCGGAUAAAAUUGGAGGGGGCGG [C9A G36U] to AACACUGCGAAUGCCGGUCCCAAGCCCGGAUAAAAGUGGAGGGGACGG [C9G G45A], the self-cleavage rises from 0.0953 to 0.444.

Compared with AACACUGCGAAUGCCGGUCCCAAGCCCGGAUAAAAGUGUAGGGGGCGG [C9G G39U], AACACUGCGAAUGCCGGUCCCAAGCCCGGAUAAAAGUGAAGGGGGCGG [C9G G39A] is lower in self-cleavage: 0.147 for the first, 0.137 for the second.

First: AACACUGCGAAUGCCGGUCCCAAACCCGGAUAAAAGUGGAGGGGGCGG [C9G G24A]
Second: AACACUGCGAAUGCCGGUCCCAAGCCCGGAUAAAAGUGGAGGGGGUGG [C9G C46U]
The self-cleavage of the first is lower: 0.0902 for the first, 0.609 for the second.

Going from AACACUGCGAAUGCCGGUCCCAAGCCCGGAUAAAAGUGGAGGGGGAGG [C9G C46A] to AACACUGCGAAUGCCGGUCACAAGCCCGGAUAAAAGUGGAGGGGGCGG [C9G C20A], the self-cleavage falls from 0.376 to 0.0864.

First: AACACUGCGAAUGCCGGUCGCAAGCCCGGAUAAAAGUGGAGGGGGCGG [C9G C20G]
Second: AACACUGCGAAUGCCGGUCCCAAGCCCGGAUAAAAGUGGAGUGGGCGG [C9G G42U]
The self-cleavage of the first is lower: 0.0438 for the first, 0.119 for the second.

First: AACACUGCUAAUGCCGGUCCCAAGCCCGGAUAACAGUGGAGGGGGCGG [C9U A34C]
Second: AACACUGCUAAUGCCGGUCCCAAGCCCGGUUAAAAGUGGAGGGGGCGG [C9U A30U]
The self-cleavage of the first is lower: 0.131 for the first, 0.579 for the second.

Going from AACACUGCAAAUGCCUGUCCCAAGCCCGGAUAAAAGUGGAGGGGGCGG [C9A G16U] to AACACUGCUAAUGCCGGUCCCAAGCCCGGAUAAAUGUGGAGGGGGCGG [C9U A35U], the self-cleavage rises from 0.254 to 0.767.

Going from AACACUGCGAAUGCCGGUCCCAAGCCCGGAGAAAAGUGGAGGGGGCGG [C9G U31G] to AACACUGCGAAUGCCGGUCCCAAGCCCGGACAAAAGUGGAGGGGGCGG [C9G U31C], the self-cleavage falls from 0.781 to 0.722.

First: AACACUGCAAAUGCCGGUCCCAAGCCCGGAUAAAAGUGGAGGGGGCAG [C9A G47A]
Second: AACACUGCAAAUGCCGGUCCCAAGCCCGGAUAAAAGUGGAGGGGGCUG [C9A G47U]
The self-cleavage of the first is higher: 0.336 for the first, 0.244 for the second.

Going from AACACUGCAAAUGCCGGUCCCAAGCCCGGAUAAAAGUGGAGGGGGCCG [C9A G47C] to AACACUGCGAAUGCCGGUCCCAAGCCCGGAUAAAAGUUGAGGGGGCGG [C9G G38U], the self-cleavage rises from 0.221 to 0.387.

Going from AACACUGCGAAUGCCGGUCCCAAGCCCGGAUAACAGUGGAGGGGGCGG [C9G A34C] to AACACUGCGAAUGCCGGUCCCAAGCCCGGAUAAGAGUGGAGGGGGCGG [C9G A34G], the self-cleavage rises from 0.134 to 0.238.

Going from AACACUGCGAAUGCCGGUCCCAAGCCCGUAUAAAAGUGGAGGGGGCGG [C9G G29U] to AACACUGCGAAUGCCGGUCCCAAGCCCGCAUAAAAGUGGAGGGGGCGG [C9G G29C], the self-cleavage falls from 0.447 to 0.396.

Going from AACACUGCGAAUGCCGGUCCCAAGCCCGAAUAAAAGUGGAGGGGGCGG [C9G G29A] to AACACUGCAAAGGCCGGUCCCAAGCCCGGAUAAAAGUGGAGGGGGCGG [C9A U12G], the self-cleavage falls from 0.596 to 0.417.

First: AACACUGCAAAAGCCGGUCCCAAGCCCGGAUAAAAGUGGAGGGGGCGG [C9A U12A]
Second: AACACUGCAAAUGCCGGUCCCAAGCCCGCAUAAAAGUGGAGGGGGCGG [C9A G29C]
The self-cleavage of the first is higher: 0.916 for the first, 0.307 for the second.

First: AACACUGCAAAUGCCGGUCCCAAGCCCGAAUAAAAGUGGAGGGGGCGG [C9A G29A]
Second: AACACUGCAAAUGCCGGUCCCAAGCCCGUAUAAAAGUGGAGGGGGCGG [C9A G29U]
The self-cleavage of the first is lower: 0.627 for the first, 0.686 for the second.

First: AACACUGCGAAUGCCGGUCCCAAGCCCGGAUAAAAGUGGUGGGGGCGG [C9G A40U]
Second: AACACUGCGAAUGCCGGUCCCAAGCCCGGAUAAAAGUGGGGGGGGCGG [C9G A40G]
The self-cleavage of the first is higher: 0.151 for the first, 0.109 for the second.
